Measured values reported in patent publication US9040042B2, “Optimized antibodies that target HM1.24” (Xencor, Inc., priority 2006, dated 2015).
Where “and” joins values, the source holds several entries; their conditions need not be identical. Equal values may be shown once. Read-outs that look alike come from different tables or passages of the source.

How the values were obtained:
CD20 = target: T1, CD20 (Homo sapiens, UniProt P11836); details: cited from earlier work
T1 construct: endogenous in cells; host or cells: patients' own cells (clinical treatment, reported from the literature)
T1 sequence (P11836 1-297): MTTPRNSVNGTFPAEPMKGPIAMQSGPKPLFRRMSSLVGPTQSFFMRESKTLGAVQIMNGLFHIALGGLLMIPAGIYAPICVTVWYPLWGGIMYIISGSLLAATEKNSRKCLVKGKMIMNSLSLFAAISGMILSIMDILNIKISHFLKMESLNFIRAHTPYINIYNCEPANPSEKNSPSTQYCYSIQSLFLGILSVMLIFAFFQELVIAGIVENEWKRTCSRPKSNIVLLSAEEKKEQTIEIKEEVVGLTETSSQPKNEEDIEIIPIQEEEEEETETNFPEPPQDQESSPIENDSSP

human V158 FcγRIIIa [1] = target: T2, human V158 FcγRIIIa (Homo sapiens, UniProt P08637, F176V); details: read-out: affinity for human V158 FcγRIIIa, cited from earlier work
T2 sequence (P08637 17-208 F176V limits assumed): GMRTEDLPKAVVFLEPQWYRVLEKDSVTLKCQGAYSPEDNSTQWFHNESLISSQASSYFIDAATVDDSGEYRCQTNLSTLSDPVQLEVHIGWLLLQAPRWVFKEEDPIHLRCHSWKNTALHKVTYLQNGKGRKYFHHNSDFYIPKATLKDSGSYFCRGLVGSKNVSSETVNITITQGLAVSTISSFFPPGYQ

human F158 FcγRIIIa [2] = target: T3, human F158 FcγRIIIa (Homo sapiens, UniProt P08637); test: Binding of human WT IgG1 to human F158 FcγRIIIa (Biacore, calorimetry); details: present study; binding lower than the 5 uM cutoff applied; read-out: affinity for human F158 FcγRIIIa
T3 sequence (P08637 17-208 limits assumed): as the sequence (P08637 17-208 F176V limits assumed) above, with V160F counted along it
Method: (§1) This is consistent with the literature which indicate that binding is approximately 200-500 nM, as determined by Biacore (210 nM as shown in Okazaki et al, 2004, J Mol Bio 336:1239-49; 250 nM as shown in Lazar et al, Proc Natl Acad Sci USA 103(11):4005-4010) and calorimetry (530 nM, Okazaki et al, 2004, J Mol Bio 336:1239-49).

human V158 FcγRIIIa [3] = target: T2, human V158 FcγRIIIa; test: Binding of human WT IgG1 to human V158 FcγRIIIa (Biacore, calorimetry); details: present study; read-out: affinity for human V158 FcγRIIIa
Method: as §1

human F158 FcγRIIIa [4] = target: T3, human F158 FcγRIIIa; details: read-out: affinity for human F158 FcγRIIIa, cited from earlier work
[5] = calorimetry, Okazaki et al 2004

Row | Kd (human F158 FcγRIIIa [2]) [nM] | Kd (human V158 FcγRIIIa [3]) [nM] | Substance | clinical efficacy (CD20; patients homozygous or heterozygous for FcγRIIIA 158F, Carton 2002, Weng 2003) | clinical response (CD20; patients with FcγRIIIA 158 V/V homozygous genotype, Dall'Ozzo et al. 2004) | Kd (human V158 FcγRIIIa [1]; Biacore, Okazaki et al 2004, Lazar et al) | Kd (human V158 FcγRIIIa [1]; [5]) [nM] | Kd (human V158 FcγRIIIa [1]; literature overall) [nM] | Kd (human V158 FcγRIIIa [1]; one study, Ferrara et al 2006) [nM] | Kd (human F158 FcγRIIIa [4]; Biacore, Ferrara et al 2006) [nM] | Kd (human F158 FcγRIIIa [4]; [5]) [nM] | Kd (human F158 FcγRIIIa [4]; literature overall) [nM]
1 |  |  | Rituxan: anti-CD20 antibody Rituxan® (rituximab) | minimally effective | better clinical response |  |  |  |  |  |  | 
2 | > 5000 | ~240 | human WT IgG1: Human wild type IgG1 immunoglobulin, reference for Fc receptor binding |  |  | 210 nM and 250 nM | 530 | 200 to 500 | 750 | 5000 | 2700 | 3000 to 5000
